Experiment [1] concerns airways of naïve mice. Description: Injection of recombinant LIGHT / TL1A into the airways of naïve mice: airway remodeling. The format is in vivo, mouse. Conditions: for airway remodeling (accumulation of collagen, trichrome): 10 μg intratracheally on two consecutive days, day 3, rLIGHT in DR3−/− mice, rTL1A in LIGHT−/− mice; for remodeling in mice lacking T cells and ILCs: RAG and RAGγc−/− mice; for fibrosis and remodeling after injection of the recombinant protein alone (collagen, αSMA / smooth muscle, airway hyperresponsiveness): naïve mice, into the airways (or skin). Here is the method: Naïve mice were injected with PBS or 10 μg rLIGHT or rTL1A intratracheally on two consecutive days. On day 3, accumulation of collagen was analyzed in the airways with trichrome staining. (FIG. 3A) rLIGHT was injected into DR3−/− mice, or rTL1A into LIGHT−/− mice. (FIG. 3B) rLIGHT was combined with rTL1A (5 μg each), and the extent of collagen deposition scored as well as the extent of inflammation scored. (FIG. 3C) rLIGHT and rTL1A were injected into RAG−/− mice.
The inventors furthered these observations by testing whether LIGHT and TL1A could induce fibrosis and remodeling independently of other inflammatory activity, and of each other, by injecting the recombinant proteins into naïve mice. […] Moreover, the effects of LIGHT and TL1A were not reliant on the other cytokine shown by injection of the proteins into the respective knockout animals.

The test system of experiment [2] is normal human epidermal keratinocytes. As to the kind of experiment: Human epidermal keratinocytes stimulated with rLIGHT or rTL1A. The format is cell-based. Conditions: for NF-κB activation (p-p65/RelA): keratinocytes, 25 ng/ml rTL1A or PBS. Here is the method:
FIG. 2A-FIG. 2C illustrate LTβR, HVEM, and DR3 are co-expressed or active in lung epithelial cells and fibroblasts, and keratinocytes and dermal fibroblasts. Cultured normal human bronchial epithelial cells and lung fibroblasts, and epidermal keratinocytes and dermal fibroblasts, were stained for expression of (FIG. 2A) LTβR and HVEM, (FIG. 2B) DR3 (isotype controls, gray), or (FIG. 2C) p-p65/RelA NF-κB after culture with 25 ng/ml rTL1A or PBS. Data representative of 2-4 experiments each.
Experimental Design: 1.1. LIGHT and TL1A co-operate to promote hyperplasia and inflammatory features in human keratinocytes: Firstly, the inventors test how signaling from LIGHT and TL1A directly regulate keratinocytes in vitro. Studies are performed with titrated doses of rLIGHT or rTL1A (0.1-100 ng/ml) vs. PBS, added to normal human epidermal keratinocytes from a minimum of 4 donors (obtained from Lonza) with kinetic analyses, as described previously (7, 8). LIGHT and TL1A have maximal activity in the range 20-100 ng/ml, similar to IL-13 or IL-17. […] The inventors control for specificity with siRNA knockdown of DR3, and then determine synergistic or additive activities, cross-titrating rLIGHT together with rTL1A and measure the extent of cell division and growth. The inventors also test if co-operation is at the level of the receptors (e.g. TL1A enhances expression of the LIGHT receptors).

Experiment [3] relates to normal human bronchial epithelial cells (HBE). As to the kind of experiment: Human bronchial epithelial cells (HBE) stimulated with rLIGHT or rTL1A. The experiment is classed as cell-based. Conditions: for periostin and TSLP expression (IF staining): 48 hrs. From the text:
HBE were stimulated with rLIGHT without (black bars) or with (gray bars) budesonide. Data are mean fold increase in mRNA over unstimulated cells after 3 days, measured by RT-PCR. Steroid sensitivity was arbitrarily set at >75% inhibition of the LIGHT-induced response, indicated to the left of the thick dotted lines.
HBE were stimulated with rLIGHT (left) or rTL1A (right) for 48 hrs and expression of periostin and TSLP examined by IF staining.

Experiment [4] deals with human airway fibroblasts (HAF). As to the kind of experiment: Human airway fibroblasts (HAF) stimulated with rLIGHT or rTL1A with or without TGF-β. The format is cell-based. An excerpt:
FIG. 9A-FIG. 9D illustrate LIGHT and TL1A induce inflammatory and remodeling activity in human airway fibroblasts (HAF). HAF were stimulated with rLIGHT or rTL1A with or without TGF-β. (FIG. 9A) Proliferation (left, thymidine incorporation) or αSMA mRNA (right) induced by LIGHT, TGF-β or both. (FIG. 9B) mRNA for select genes induced by LIGHT. (FIG. 9C) Collagen 13 and periostin protein (IF stain; DAPI is used for […]) and mRNA induced by TL1A. (FIG. 9D) Proliferation (left, thymidine incorporation) and αSMA mRNA (right) induced by TL1A, TGF-β, or their combination. Data individual cultures or means of triplicates. mRNA either fold increase over unstimulated cells or relative to GAPDH.
The inventors compare rTL1A to rLIGHT, titrating each molecule (5-100 ng/ml, their optimal dose range, see (60, 69)). The inventors perform kinetic analyses over 3 days (e.g. 4, 24, 48, 72 hr) and compare data from 4-6 individual cell populations. The inventors initially gain data with normal HAF. […] The inventors additionally have shown that rTL1A can promote activities in HAF that might overlap with, but also be distinct from, LIGHT (FIGS. 9C and 9D).

The test system of experiment [5] is lung fibroblasts. Description: Lung fibroblasts stimulated with rTL1A or rLIGHT. The experiment is classed as cell-based.
Experiment [6] has as its system airways of naïve mice. Description: Injection of recombinant LIGHT / TL1A into the airways of naïve mice: airway remodeling. The experiment is classed as in vivo, mouse. Conditions: 10 μg intratracheally on two consecutive days, day 3.
Experiment [7] relates to skin of naïve mice. As to the kind of experiment: Subcutaneous / intradermal injection of recombinant LIGHT into mice: skin fibrosis and inflammation. The experiment is classed as in vivo, mouse. From the text: Masson trichrome (collagen), alpha Smooth muscle actin (αSMA) and TSLP immunofluorescent staining of skin sections. The data is representative of 6 to 10 mice per group.
Diseases such as atopic dermatitis (AD) and psoriasis present with extensive tissue remodeling, features shared with diseases of the lungs, such as severe asthma. The inventors have shown that a genetic deficiency in the TNF superfamily molecule LIGHT (TNFSF14, CD258), and blocking LIGHT binding to its receptors, reduced remodeling in the lungs in mouse models of severe asthma and systemic sclerosis (1, 2). […] LIGHT interacts with the TNF superfamily receptors HVEM (herpesvirus entry mediator, TNFRSF14) and LTβR (lymphotoxin beta receptor, TNFRSF3), and TL1A with DR3 (TNFRSF25) (4-6). The studies disclosed herein investigate the combination use of LIGHT and TL1A to control skin tissue remodeling relevant to AD and psoriasis, directly driving deregulated activity in keratinocytes and dermal fibroblasts. In support, the inventors have reported that LIGHT-deficient mice were protected from developing skin inflammation in models of scleroderma (7) and allergen-induced AD (8). […] The inventors have observed that the absence of TL1A/DR3 interactions also markedly limits disease in the same models of AD and psoriasis, and that keratinocytes and fibroblasts co-express DR3 together with the receptors for LIGHT. The inventors determine that LIGHT and TL1A are effectors of skin pathology through driving epidermal hyperplasia and remodeling molecules such as collagen, periostin, and alpha smooth muscle actin in keratinocytes and/or fibroblasts. Through production of other factors such as TSLP, IL-33, and chemokines in these structural cells, LIGHT and TL1A maintain disease through orchestrating immune inflammatory cells in the skin.

Experiment [8] deals with dermal fibroblasts. Description: Dermal fibroblasts stimulated with rLIGHT. The format is cell-based, human. Conditions: preliminary studies. An excerpt:
LIGHT and TL1A synergistic in driving proliferation and inflammatory activity in dermal fibroblasts: The inventors determine inflammatory events that are triggered by LIGHT and TL1A in normal human dermal fibroblasts, using cells from a minimum of 4 donors, with kinetic analyses. The inventors find that both LIGHT and TL1A induce fibroblast proliferation, and may have differential abilities to induce myofibroblast differentiation. […] The inventors also test a range of inflammatory factors relevant to AD or psoriasis that have receptors on fibroblasts (e.g. LIGHT, IL-13, TGF-β, FGF, TNF, IL-17) to determine if they can promote DR3.

“Also recorded” adds a separate entry of the source.

With “rTL1A: recombinant TL1A (TNFSF15) protein [reference compound]”, in experiment [1], the “airway remodeling (accumulation of collagen, trichrome)” value was “promote airway remodeling”; the “remodeling in mice lacking T cells and ILCs” value is recorded as “induced remodeling”. The “fibrosis and remodeling after injection of the recombinant protein alone (collagen, αSMA / smooth muscle, airway hyperresponsiveness)” value in experiment [1] (listed as TL1A) is “substantial collagen deposition and αSMA accumulation; also recorded: induced a fibroproliferative syndrome”. Further, in experiment [1] (listed as recombinant TL1A), the “fibrosis and remodeling after injection of the recombinant protein alone (collagen, αSMA / smooth muscle, airway hyperresponsiveness)” value is “rapidly promotes smooth muscle alterations, collagen deposition, and airway hyperresponsiveness”. Besides, in experiment [2], the “NF-κB activation (p-p65/RelA)” value was “enhanced NF-κB activation”. In addition, the “NF-κB activation (p-p65/RelA)” value in experiment [2] (listed as TL1A) is recorded as “induce NF-κB activation”. Besides, in experiment [3], the “periostin and TSLP expression (IF staining)” value (“periostin and TSLP expression” for short) is reported as “promotes fibrotic activity”. Moreover, the “periostin and TSLP expression” value in experiment [3] (listed as TL1A) is on record as “upregulated”. Besides, the “collagen 13 and periostin protein and mRNA” value in experiment [4] is “promoting collagen 13 and periostin”. The “proliferation of HAF (thymidine incorporation)” value in experiment [4] (protein alone) is on record as “induced proliferation”. In experiment [4] (with TGF-β), the “proliferation of HAF in combination with TGF-β” value was “augmented by TGF-β” and the “αSMA mRNA in combination with TGF-β” value was “enhanced TGF-β driven αSMA”. Besides, in experiment [5] (protein alone), the “periostin and collagen in lung fibroblasts” value was “induced periostin and collagen”; the “proliferation of lung fibroblasts” value is “induced proliferation”; the “αSMA in lung fibroblasts” value is listed as “not αSMA”. In experiment [5] (with TGF-α as printed), the “proliferation and αSMA together with TGF” value is on record as “synergized with TGF-α”. For the same molecule, in experiment [6], the “αSMA expression in airways” value is given as “upregulated”.

B1: rLIGHT: recombinant LIGHT (TNFSF14) protein (protein)
chain: DGPAGSWEQLIQERRSHEVNPAAHLTGANSSLTGSGGPLLWETQLGLAFLRGLSYHDGALVVTKAGYYYIYSKVQLGGVGCPLGLASTITHGLYKRTPRYPEELELLVSQQSPCGRATSSSRVWWDSSFLGGVVHLEAGEKVVVRVLDERLVRLRDGTRSYFGAFMV
In the case of B1, in experiment [1], the “airway remodeling (accumulation of collagen, trichrome)” value was “promote airway remodeling”; the “remodeling in mice lacking T cells and ILCs” value is “induced remodeling”; the “fibrosis and remodeling after injection of the recombinant protein alone (collagen, αSMA / smooth muscle, airway hyperresponsiveness)” value is listed as “reproduce this fibrotic activity”. In addition, the “fibrosis and remodeling after injection of the recombinant protein alone (collagen, αSMA / smooth muscle, airway hyperresponsiveness)” value in experiment [1] (listed as LIGHT) is “rapidly promotes smooth muscle alterations, collagen deposition, and airway hyperresponsiveness; also recorded: substantial collagen deposition and αSMA accumulation; also recorded: increases the accumulation of collagen and alpha-SMA; also recorded: induced a fibroproliferative syndrome”. For the same molecule, the “skin fibrosis and remodeling (trichrome, αSMA, TSLP staining)” value in experiment [7] (WT mice, intradermal injection, 20 μg/mouse vs PBS) is “induces scleroderma; also recorded: induces skin fibrosis and remodeling”. Also, the “cytokines and chemokines induced in vivo” value in experiment [7] (injected s.c. into mice) is “induced the cytokines IL-33 and IL-25; also recorded: inducing several chemokines”. In experiment [7] (naïve mice, subcutaneous injection), the “skin disease features after subcutaneous injection” value is “induced features of AD, scleroderma, and psoriasis”. The “induction of TSLP and periostin from keratinocytes” value in experiment [2] is reported as “induce molecules from keratinocytes”. In addition, the “proliferation/hyperplasia of human keratinocytes” value in experiment [2] (via both HVEM and LTβR) is listed as “induce proliferation/hyperplasia”. The “periostin and TSLP expression” value in experiment [3] was “upregulated”. In addition, the “expression of adhesion molecules, proteinases, cytokines and chemokines (mRNA, RT-PCR), steroid sensitivity” value in experiment [3] (3 days, without or with budesonide) is reported as “induce expression; also recorded: promotes steroid-resistant responses”. In experiment [4], the “collagen 13 and periostin protein and mRNA” value is “the former shared with LIGHT but not the latter”. In experiment [4] (protein alone), the “myofibroblast differentiation (upregulation of αSMA mRNA)” value is reported as “cannot drive myofibroblast differentiation” and the “proliferation of HAF (thymidine incorporation)” value is “promote proliferation”. Moreover, the “adhesion molecules, chemokines, cytokines and metalloproteases mRNA” value in experiment [4] (through the LTβR, siRNA knockdown) is reported as “induced”. Moreover, in experiment [8], the “TSLP, periostin and αSMA expression” value was “upregulated TSLP, periostin, and αSMA”. Besides, in experiment [5], the “chemokines (CCL5, CCL20 CXCL5 CXCL11) in lung fibroblasts” value is reported as “upregulated some chemokines”. In addition, the “αSMA expression in airways” value in experiment [6] is reported as “upregulated”.

Values taken from patent publication US20230159649A1, “METHODS AND COMBINATIONS FOR DUAL TARGETING OF TNF FAMILY MEMBERS” (La Jolla Institute for Immunology, priority 2020, published 2023).
